Measurements taken from the supplement of paper PMC9170038.

System: MS2 coat protein
Assay: apparent KD of MS2 coat protein; designed switch direction (-1 OFF switch, 1 ON switch): -1; higher = weaker reporter binding
Method in brief: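 Stalled E. coli RNA polymerase transcribed designed RNA switches on Illumina chips, which were then titrated with SNAP-549-labelled MS2 coat protein, doubling from 0.7 or 1.5 nM to 3 µM. Steps lasted from 0.8–1.5 h at the lowest concentration to 10–20 min at the highest. The apparent KD is each design's median over clusters of curve-fitted normalised fluorescence.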

[1] = input ligand: microRNA oligo, concentration not stated
[2] = Eterna round: R95, input ligand: FMN 200 uM
[3] = Eterna round: R95, input ligand: microRNA oligo, concentration not stated
[4] = Eterna round: R95, input ligand: none

| Sequence | apparent KD of MS2 coat protein (input ligand: FMN 200 uM) [nM] | apparent KD of MS2 coat protein [1] [nM] | apparent KD of MS2 coat protein (input ligand: none) [nM] | apparent KD of MS2 coat protein [2] [nM] | apparent KD of MS2 coat protein [3] [nM] | apparent KD of MS2 coat protein [4] [nM] |
| --- | --- | --- | --- | --- | --- | --- |
| AAAAAAAAGAUAGGAUAUUAGAAAAAAAUGGUGAUAGAGACAUGAGGAUCACCCAUGUAAAAAAAUAAGAAGGGUCAAAAAAAA [AK ExNG2-V2-5] (Eterna round: R96, puzzle: Exclusion NG 2) | 322 | 298 | 362 | – | – | – |
| AAAAAACAUGAGGAUCACCCAUGUGAGGAUAUGAUGCGAAUAAAGAAAGAAGAAAGCAUCAGAAGGCACAUAUG [Mod of Disincluded 3 (little more stable fmn state)] (Eterna round: R96, puzzle: Exclusion 1) | – | 66.6 | – | – | – | – |
| AAAAAGGCAGGAUAUACGAGUCAAAGAAAAGACAAAAAGGGACAUGAGGAUCACCCAUGUAGAAGGGCCAAAAA [Fiskers exclusion D2 62% 4] (Eterna round: R96, puzzle: Exclusion 2) | – | 31.9 | – | – | – | – |
| AAAAAGGUAGGAUAUACGAAAAAAAAGGGUAGAAAAAAAACACAUGAGGAUCACCCAUGUAGAAGGACCAAAAG [salish99_ex2_r3_045] (puzzle: Exclusion 2) | – | – | – | 58.7 | 32 | 28.4 |
| AAAACGGUUCUCGUGAGGUACAUGAGGAUCACCCAUGUGAGUCAGGAUAUCCCGUCCAAGUGCGAGGAGAAGGGACGCACUUGG [Esesence] (Eterna round: R96, puzzle: Exclusion NG 3) | 190 | 103 | 110 | – | – | – |
| AAAAGAUAAGGAUAUUGAAGGUUCGACAUGAGGAUCACCCAUGUUAUGUUGGAAAAGGGACAAGAAGGUAUGAAAU [salish99_ex5_r4_202] (Eterna round: R97, puzzle: Exclusion 5) | 28.6 | – | 29.1 | – | – | – |
| AAAAGUCCGGAGGAUAUCCACAAGCUCGGGAAAGGAGAAGGCCGGACAUGAGGAUCACCCAUGUGUCUUCUUGC [Rebila] (puzzle: Exclusion 6) | – | – | – | 358 | 63 | 94.5 |
| AAAAGUUAAGGAUAUACUUGAGGAUCACCCAAGUAGGUGGCUUCAGCCGGGAAACGGCGUAGAAGGUAGCAGAA [Atorin] (Eterna round: R97, puzzle: Exclusion 3) | 65.2 | – | 60.5 | – | – | – |
| AAAAUACAAGCAAGAUCCUACAUGAGGAUCACCCAUGUGCUCGUCUUAUAAAGUACUAUCACGAAAGUGAUAGUACA [Mat - Sensor v3 - turn-off var 1 - Eli Mod - D59] (puzzle: Sensor v3, turn-off variant 1) | – | – | – | 256 | 43.1 | 415 |
| AAAAUGGUCUAGGAUAUGACAAAUCUGAUCACGUCAGAAGGAGACACAUGAGGAUCACCCAUGUGGGUGCGAAA [Qureenan] (puzzle: Exclusion 6) | – | – | – | 130 | 44.4 | 39.5 |
| AAACACGGAGGAUAUACAGGUUCAGGAAACCGAACCGGCUGACAUGAGGAUCACCCAUGUAGAAGGCCGAAAUA [EX2 A.23] (Eterna round: R97, puzzle: Exclusion 2) | 19.5 | – | 20.9 | – | – | – |
| AAACAGGGAGGAUAUACAUGAGGAUCACCCAUGUUCGAGCGUCCUUGAGCUACCUCAGGUAGAAGGCCCAAAAG [Qubeon] (Eterna round: R97, puzzle: Exclusion 3) | 151 | – | 32.9 | – | – | – |
| AAACCAAUAGUCAGGAUAUCUUAGUCGCGGAUGUGGGAGAAGGGACAUGAGGAUCACCCAUGUGGGAGUAUGUG [Eternabot (L1) Solution 19] (Eterna round: R97, puzzle: Brourd's mod of Exclusion 4) | 116 | – | 122 | – | – | – |
| AAACCCGCGCGAGGAUAUCACAUGAGGAUCACCCAUGUGGCACUCCGUCACCGGGCAGUCCCGAGUGAGAAGGUGCAGGCGGAA [Entereis] (Eterna round: R96, puzzle: Exclusion NG 2) | 27.5 | 32.4 | 23.4 | – | – | – |
| AAACCUAAUGUUAGGAUAUGCUUCGGGCUUCCGCUGCAGAAGGAACAUGAGGAUCACCCAUGUCAAAUAAAAUC [JL-BMX4-4.39 ViennaUCT mod] (Eterna round: R97, puzzle: Brourd's mod of Exclusion 4) | 81.8 | – | 17.6 | – | – | – |
